Two substances from IntAct's records for PubMed 12502741 can be followed below.

This assay addresses rb_human RB1 (UniProt P06400).

Chain of rb_human RB1 (P06400 whole entry): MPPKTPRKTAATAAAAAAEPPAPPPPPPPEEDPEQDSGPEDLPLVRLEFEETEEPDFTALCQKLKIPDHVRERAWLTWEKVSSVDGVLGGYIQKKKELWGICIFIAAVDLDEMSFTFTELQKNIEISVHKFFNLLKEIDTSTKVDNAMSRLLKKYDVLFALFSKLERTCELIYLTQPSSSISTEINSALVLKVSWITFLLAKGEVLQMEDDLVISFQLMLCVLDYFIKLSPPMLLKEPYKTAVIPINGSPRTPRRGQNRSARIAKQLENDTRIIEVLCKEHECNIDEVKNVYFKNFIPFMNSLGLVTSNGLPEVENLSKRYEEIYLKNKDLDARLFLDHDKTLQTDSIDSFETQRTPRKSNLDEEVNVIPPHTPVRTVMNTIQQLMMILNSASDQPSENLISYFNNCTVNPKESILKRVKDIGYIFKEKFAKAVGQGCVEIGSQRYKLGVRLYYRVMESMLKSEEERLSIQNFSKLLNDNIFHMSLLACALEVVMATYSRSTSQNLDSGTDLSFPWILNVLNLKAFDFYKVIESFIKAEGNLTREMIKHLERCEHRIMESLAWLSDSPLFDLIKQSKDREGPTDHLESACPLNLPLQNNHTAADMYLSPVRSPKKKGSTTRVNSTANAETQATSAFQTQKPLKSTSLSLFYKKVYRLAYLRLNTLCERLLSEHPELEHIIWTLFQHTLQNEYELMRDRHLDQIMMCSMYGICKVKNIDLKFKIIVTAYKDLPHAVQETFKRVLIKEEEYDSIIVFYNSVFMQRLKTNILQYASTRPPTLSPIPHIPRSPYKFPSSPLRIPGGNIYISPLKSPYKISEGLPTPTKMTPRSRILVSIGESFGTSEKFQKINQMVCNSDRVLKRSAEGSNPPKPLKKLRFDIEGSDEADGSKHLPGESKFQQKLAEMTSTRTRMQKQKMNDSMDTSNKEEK
Chain of Transcription factor E2F2 (Homo sapiens), Q14209 G421S (Q14209 whole entry G421S): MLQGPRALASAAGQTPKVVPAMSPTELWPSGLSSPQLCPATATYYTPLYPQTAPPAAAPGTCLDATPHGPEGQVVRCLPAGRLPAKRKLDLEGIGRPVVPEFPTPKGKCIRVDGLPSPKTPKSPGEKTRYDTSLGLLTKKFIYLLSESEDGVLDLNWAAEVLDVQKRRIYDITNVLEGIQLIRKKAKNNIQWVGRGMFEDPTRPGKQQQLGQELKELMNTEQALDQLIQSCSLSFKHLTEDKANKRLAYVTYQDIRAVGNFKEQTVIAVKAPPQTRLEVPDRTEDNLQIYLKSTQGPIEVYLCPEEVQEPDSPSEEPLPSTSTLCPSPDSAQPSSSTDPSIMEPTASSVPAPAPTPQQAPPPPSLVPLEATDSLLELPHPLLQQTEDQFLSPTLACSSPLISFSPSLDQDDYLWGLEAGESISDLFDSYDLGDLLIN
Chain of Transcription factor E2F2 (Homo sapiens), Q14209 E420A (Q14209 whole entry E420A): as the sequence (Q14209 whole entry G421S) above, with E420A, S421G counted along it

With “Transcription factor E2F2 (Homo sapiens), Q14209 E420A”, the “effect of a mutation on the interaction” value is reported as “decreasing interaction strength”.

With “Transcription factor E2F2 (Homo sapiens), Q14209 G421S”, the “effect of a mutation on the interaction” value is on record as “decreasing interaction strength”.
